From the DeepSol protein solubility set

Test: soluble on expression in E. coli; label from the status in PepcDB or PDB records

Sequence | soluble on expression in E. coli
MSSNFRHQLLSLSLLVGIAAPWAAFAQAPISSVGSGSVEDRVTQLERISNAHSQLLTQLQQQLSDNQSDIDSLRGQIQENQYQLNQVVERQKQILLQIDSLSSGGAAAQSTSGDQSGAAASTTPTADAGTANAGAPVKSGNANTDYNAAIALVQDKSRQDDAMVAFQNFIKNYPDSTYLPNANYWLGQLNYNKGKKDDAAYYFASVVKNYPKSPKAADAMFKVGVIMQDKGDTAKAKAVYQQVISKYPGTDGAKQAQKRLNAM | soluble
MSSQIRQNYSTEVEAAVNRLVNLYLRASYTYLSLGFYFDRDDVALEGVCHFFRELAEEKREGAERLLKMQNQRGGRALFQDLQKPSQDEWGTTPDAMKAAIVLEKSLNQALLDLHALGSAQADPHLCDFLESHFLDEEVKLIKKMGDHLTNIQRLVGSQAGLGEYLFERLTLKHD | soluble
MSSRKGKASAHISYEDENDDLIDEINTFHNKDRKVEKGAIHKRKTFNRPEEVLNVEAEASDSSEDDGSDFDDDDVNDITDNKWGKKRKDFYGTGFVDKDWGGMREEEMEDAQLEEEDALTRQKQIDKSTAAIADLFDDDDEDEEEKEETVEVETVLEFNEENARTKNKKIVKTLEQFEARKRIFDLVVKPLENVIKQIPKCALRSQLVYVAQTYASYLMNTAFLLNLRAKQFSNEKLDDPLVDIHPVVESLKRLEKKITECEDFLHSNSDHLDELKKWAESEPENMEELISKVGDVQLTKKNFGAIMNNNLSTITSSDNTSIHPHFTPMDADEKRKASDKVAKNREYAERRGKKKAKTSKTKNRRKVHAIEKRVKSQIGNVRREMQKYSGETSGIRASTIKSTKLIA | not soluble
MSSSIREEVHRHLGTVALMQPALHQQTHAPAPTEITHTLFRAYTRVPHDVGGEADVPIEYHEKEEEIWELNTFATCECLAWRGVWTAEERRRKQNCDVGQTVYLGMPYYGRWLLTAARILVDKQFVTLTELHNKIVEMRERVASGQGLGEYLPPKAK | soluble
MSSSTSQDFVSRPVIKKVFAKLQKEGDGAVVRRGISRSEQKLLDPFLMLDEFSVSPPAGFPDHPHRGITHQDFKGHKGTIYAGDVQWMTAGRGIIHSEMPEEEVNKEPNYQELSHSDIPKAEQNGVEVKVIAGESMGIQSPVYTRTPTMFLDFTLQPGAQIHQNVPESWNAFAYILESGEGGGVFSSSNSSPIPAHSVVVFGPGNDGVSVWNKSSSKQLRFVLIAGEPIGEPVVQYGPFVMNTQAEIDMTIEDYHYGKNGFEMAKYWRSQ | not soluble
MSTAQAVKIGIAEMEVVIAPNVIRTCGLGSCVGVVIYDAGKAVAGMAHVMLPHSSMARGGVINAAKYADTAVEALVQLVIAAGGRKGMLKAKLAGGAQMFSFSTVGGDMMRIGARNVEEVKKQLERLHIPVVAEDVGGHSGRTIEFNPQTGVLSIRTAAQEIKEI | not soluble
MSTEKWRTGLQIQQLHTPTDNVDRSAMKKISSMFSALQEKFQRAKAGAPTPAAVAPPAGRESHCGLRFFEYLLVVSLRKRSSGVGYEPQVTYQFPKREVMGRLQREQEEKSMKAAHLFCFPEGVHWAPVTEYSSETFSFVLTEVDGSRRNGYCRRLLPAGKGARLPEAYCIISHVACFGLFSKIFDEVEKRRQISTAMIYPFMQSLREAPLPSPGSTVSISSFIPDAGTQIIRLTRPADSWLEHVDFTALFSRLNDEELLLVFTAAVLERRIIFISEELSTLSQVLHAVAALLYPFVWQHTFISIVPSVLIDVCEAPTPYLLGVQKSMMGLITDHSDVMIVDLSTGAPTKFITRIGDEESLLPLKLKEELLSGLSARTHHASTEQLNRLVSEAFLSVFVKTVGHFSEHIKRGGKPRQFQKKSFLKAVENKTYSSFVKLFIQTQMFDLFIQEEETQSNPNGFFHRKVKEHRDRMKQEKAKAGWVRGVVI | soluble
MSTFGEHRPYVFLPPADLDRIAAQWSKDSARPDAQGRGIAIFSAITGSYDSINHHEHLIPGADYLLFSDAPKPRYVYQPRQAPWFDCDTVRAARFIKTHPHMLLGGYRIAVWIDGNILIRGDLLPLVQRFEESGLAFGAVPHPLRQSVYAEAVECMKRGKDDEATIRRQMQRYRREEFDCEDLIESNLLMFRLGHPSLAPLLDTWWAQIESGSRRDQLSLNYALHKTGVEWLALTQRPHSVRDHPALALMHHRSQFNPLEHHHHHH | soluble
MSTINQKLSDNFREAWQKQNLEVNLEEVIEKWELTKYVKDNFICPEVNISTLPSYSFVLKFMFKLKKPYISLDENDFYIIDNPLRKDKVLNLPFVAPSSWKGSLRNSLWQLNYDYENDKIRRIFGNERSPNSEDIVLRMGRLYFFPTFFSKKSLEIINPHNRESRVGTVPILMESVPQDTTGYFTLIYVPFDLIGCEENEIKKQVACDIQLISKGLKSMFTYYGFGAKTSSGYGTSYEDITDGTITLRVKGIEVSLKDIDEVKPPAEGYSKYLNEDGSVKEEFKGSGKYGLLSDKEYYKIKNQLEGSRNEYRDFRQWYGLNGEKWQKHLNSFKYPKPEWPTWNFGNFFQLIEVSKNIATSLELSGAHNECMAGDPLEHHHHHH | not soluble
MSTMKDEIEKVPASQYKGQDFQPLAEKSAIAHAKKYREEYEKLGEQFFKDNFSLNVKATNVVGSGDGAEVYVHCDDHDIVFNASIPFDMESIHEEGSMRSNDNGDTMSMMVGTVLSGFEYRANKEKMDNLEKYLKDKEDKYHYTGFTDEAITKTQNIGYQNNYFYITTSSTKLRDYRKHFEPLIKESDDDFKKHMKQLKSKKDTYINTEITTTLFSTLDEYDEKIIRKNTLSMAKEMRKEPSIPHNFTFHLLFSNNKLKINDPNISNNQINEYRVFDHDGFKNLEHHHHHH | soluble
MSTMQTELIIVSEYCQKCHIEPSFIEMLEEGGLINVRTEAGKHYLLVSELPNVERYSRMYYDLSINMEGIDAIHHMLERMDDMRREITSLRKQLLLFREREIEEADW | not soluble
MSTPFKMERGVKYRDAAKTSIIPVKNIDPNQDLLKKPEWMKIKLPASSAKIESIKNGMRRHGLHSVCEEASCPNLHECFNHGTATFMILGAICTRRCPFCDVAHGKPLPPDPEEPQKLAETIQDMKLKYVVITSVDRDDLPDRGAGHFSECVKAVRELNPNIKIEILVPDFRGRITQALEKLKDNPPDVFNHNLENVPRLYKEIRPGADYEWSLKLLREFKEIFPNIPTKSGLMVGLGETNEEILQVMQDLRDNGVTMLTLGQYLQPSRHHLPVARYVPPTEFDEFRDKANEMGFEHAACGPFVRSSYHADLQASGGLVKLEHHHHHH | not soluble
MSTQGEIRVGPSHQAKLPDLQPFPSPDGDTVTQHEELVWMPGVNDCDLLMYLRAARSMAAFAGMCDGGSTEDGCVAASRDDTTLNALNTLHESGYDAGKALQRLVKKPVPKLIEKCWTEDEVKRFVKGLRQYGKNFFRIRKELLPNKETGELITFYYYWKKTPEAALEHHHHHH | soluble
MSTQNYPATGRLAEPEYGTLLVKNVKIYGEGEPVNVLITDGVITDTHAGDVKADREVDGQGGVLLPGLVDIHVHLREPGREDTETIATGSAAAAKGGFTAVFTMANTMPVMDQPIIAESVWHKGQDIGLCDVHPVGSITKGLEGKEITEFGMMAHSQAKVRMFSDDGKCVDNPLIMRRAVEYARGTDVLLAQHCEDPRLTDGAVAHEGAMAAKLGLGGWPRVAEESIVARDAILARDYGGRMHICHASTQGTVELVKWAKEHEIPLTAEVTPHHLLLTDERLATYDGVNRVNPPLRENSDILALRDALLNGTIDCVATDHAPHGSEDKCCEFEHAKPGMLGLETSLAVVAAVFVETGLADWRFVAKVMSERPAEIVKLPGHGRPIAVGEPANLTIVDPGAKWTASGEKMASKATNTPYEGMEFNARVTTTILRGRLTCVDGEPTQARA | not soluble
MSTSSNKSDAIKQTRAFSILLMGVDTGSSERASKWEGNSDSMILVTVNPKTKKTTMTSLERDTLTTLSGPKNNEMNGVEAKLNAAYAAGGAQMAIMTVQDLLNITIDNYVQINMQGLIDLVNAVGGITVTNEFDFPISIAENEPEYQATVAPGTHKINGEQALVYARMRYDDPEGDYGRQKRQREVIQKVLKKILALDSISSYRKILSAVSSNMQTNIEISSRTIPSLLGYRDALRTIKTYQLKGEDATLSDGGSYQIVTSNHLLEIQNRIRTELGLHKVNQLKTNATVYENLYGSTKSQTVNNNYDSSGQAPSYSDSHSSYANYSSGVDTGQSASTDQDSTASSHRPATPSSSSDALAADESSSSGSGSLVPPANINPQTLEHHHHHH | soluble
MSTTHNSLPASSDKHHDGHGEASLYHDSHGHAWSGNPNYTLTQLIPELRINLGSSLDIGSGEGADAAWLASLGWKAVGLEPSGVAVERSRELSSNATFIQGKVPQDLDRCGGPFDLVTGFYIPIAGEDAWRAIARQVADGGYLIYVHHNLDELRAKGHPLLGRDDLLMPFDAADLAPSGAWEIVVHETRHREIVGGHGHHHHLDDVLVLKRRKK | not soluble
MSTVGGIEQLIPDSVSTSFIETVNGSHQFTIQGYSLAKGMSPGKFIQSDIFSVGGYDWAIYFYPDGKNPEDQSSYISLFIALASDSNDIRALFELTLMDQSGKGKHKVHSHFDRALEGGPYTLKYKGSMWGYKRFFKRSALETSDYLKDDCLVINCTVGVVRARLEGPKQYGIVLPLSNMGQGLKDLLDSEVGCDIAFQVGDETYKAHKLILAARSPVFRAQFFGPIGNNNVDRIVIDDIEPSIFKAMLSFIYTDVLPNVHEITGSTSASSFTNMIQHLLAAADLYDLARLKILCEVLLCEKLDVDNVATTLALAEQHQFLQLKAFCLEFVASPANLGAVMKSEGFKHLKQSCPTLLSELLNTVAAADKSSTSGQSNKKRSASSVLGCDTTNVRQLRRRTRKEVRAVS | not soluble
MSVDEKPIKIKVEKVSKIFGKQTKKAVQMLANGKAKKEILKATGSTVGVNQADFEVYDGEIFVIMGLSGSGKSTLVRMLNRLIEPTAGNIYIDGDMITNMSKDQLREVRRKKISMVFQKFALFPHRTILENTEYGLELQGVDKQERQQKALESLKLVGLEGFEHQYPDQLSGGMQQRVGLARALTNDPDILLMDEAFSALDPLIRKDMQDELLDLHDNVGKTIIFITHDLDEALRIGDRIVLMKDGNIVQIGTPEEILMNPSNEYVEKFVEDVDLSKVLTAGHIMKRAETVRIDKGPRVALTLMKNLGISSIYAVDKQKKLLGVIYASDAKKAAESDLSLQDILNTEFTTVPENTYLTEIFDVVSDANIPIAVVDEKQRMKGIVVRGALIGALAGNNEYINAEGT | not soluble
MSVEFYNQNAQQFFSSTVEVDSTSLLDQFVPYLPQGGLVLDAGCGSGRDSKRFLDMGYQIDAFDASAPLAALAEELLNQSVTVTTFENFTSSKRYDGIWACASLLHVTRESLPETFAHLAKMLKCGGAFYCSFKYGQDEVERDGRRFTNCNEVLLNQLLTSSPLAIDKLWVTQDLRAGREHEQWLNAILIKRLEHHHHHH | soluble
MSVEKLIVDHMETWTSALQTRSTAGRGSSGKIDLYGIKKLRELILELAVRGKLVPQDPNDEPASDLLKRIAAEKAELVKQGKIKKQKPLPEISEEEKPFELPEGWEWVHLPDIYCSISESSRKIKSSEILPEGKYPVIEQSQEFISGYCNNECLLIKLNNPVIVFGDHTRNIKFIDFDFVVGADGVKILSPILICERFFFWQLRSFKLDVRGYARHFKVLNSCLFALPPIAEQERIVEKVSSLMSLCDQLEQQSLTSLDAHQQLVETLLGTLTDSQNTAELAENWARISEHFDTLFTTEASVDALKQTILQLAVMGKLVPQDPNDEPASELLKRIAQEKAQLVKEGKIQKPLPPISDEEKPFELPEGWEWCRIGNIVNIKSELVSPKDYLNLYQVAPDIIEKGTGRVISKRTVKESGVKGPNSRFYKGQIVYSKIRPSLSKVFLAEYNGLCSADMYPLDCYINPNYLLKYILSIPFLMQVKKAENRIKMPKLNSDSFYNIIVAIPPYNEQQAIFDKINSIEAVCNGLISYIGIYHKTQLHLADALTDAAIN | not soluble
